For 28 sequences, Kd results are on record in the Immune Epitope Database (IEDB).

pKd: −log10 of the molar value.

Experiment [1] addresses HLA-A*01:01. Nature of the experiment: IEDB peptide-MHC binding, purified MHC/competitive/radioactivity; filed as Kd, often an IC50 or EC50 that approximates it; ≥ and ≤ were set here for values at or beyond the usual limits of such assays.
The target in experiment [2] is HLA-A*23:01. Described as above.
Experiment [3] concerns the target HLA-A*24:02. Described as above.
For experiment [4], the target named is HLA-A*26:01. Described as above.
In experiment [5] the target is HLA-A*29:02. The description is as above.
Experiment [6] addresses HLA-A*30:02. The experiment is described as above.
The target of experiment [7] is HLA-A*32:01. The description is as above.
For experiment [8], the target named is HLA-A*02:01. Briefly: IEDB peptide-MHC binding, purified MHC/competitive/fluorescence; filed as Kd, often an IC50 or EC50 that approximates it; ≥ and ≤ were set here for values at or beyond the usual limits of such assays.
The target of experiment [9] is HLA-A*01:01. Briefly: IEDB peptide-MHC binding, purified MHC/direct/fluorescence; filed as Kd, often an IC50 or EC50 that approximates it; ≥ and ≤ were set here for values at or beyond the usual limits of such assays.
For experiment [10], the target named is HLA-B*44:03. Nature of the experiment: IEDB peptide-MHC binding, purified MHC/competitive/radioactivity; filed as Kd, often an IC50 or EC50 that approximates it; ≥ and ≤ were set here for values at or beyond the usual limits of such assays.
In experiment [11] the target is HLA-A*03:01. Briefly: IEDB peptide-MHC binding, purified MHC/direct/fluorescence; filed as Kd, often an IC50 or EC50 that approximates it; ≥ and ≤ were set here for values at or beyond the usual limits of such assays. The conditions noted are these: source organism: Brucella abortus.
The target in experiment [12] is HLA-A*11:01. Described as above. The conditions noted are these: source organism: Brucella abortus.
Experiment [13] concerns the target HLA-B*15:01. Described as above. The conditions noted are these: source organism: Brucella abortus.
The target of experiment [14] is HLA-B*40:01. Nature of the experiment: IEDB peptide-MHC binding, purified MHC/competitive/radioactivity; filed as Kd, often an IC50 or EC50 that approximates it; ≥ and ≤ were set here for values at or beyond the usual limits of such assays.
Experiment [15] has as its target HLA-B*07:02. Nature of the experiment: IEDB peptide-MHC binding, purified MHC/direct/fluorescence; filed as Kd, often an IC50 or EC50 that approximates it; ≥ and ≤ were set here for values at or beyond the usual limits of such assays. As to conditions: source organism: Homo sapiens.
Setting [16] is: source organism: Mammarenavirus machupoense.
The mark [17] stands for this setting: source organism: SARS coronavirus Tor2.
The mark [18] stands for this setting: source organism: Vaccinia virus WR.
Where [19] appears, read: source organism: Mammarenavirus whitewaterense.
Where [20] appears, read: source organism: Dengue virus 1 Brazil/97-11/1997.
The mark [21] stands for this setting: source organism: Mammarenavirus juninense.
The mark [22] stands for this setting: source organism: Dengue virus 3 Martinique/1243/1999.
[23] abbreviates: source organism: Dengue virus 2 Jamaica/1409/1983.
[24] abbreviates: source organism: Triticum aestivum.

For orientation: pKd means the negative decadic logarithm of the Kd, by convention in mol/L.

On to CGDPSSFEY, for which the pKd in [1] (setting [16]) was 7.40; in experiment [2] (setting [16]), no more than 4.11; in experiment [3] (setting [16]) it was no more than 4.19; in [4] (setting [16]), no more than 4.11; in [5] (setting [16]), 6.08; in experiment [6] (setting [16]) it was 6.38.

On to ATEETFKLSY, for which the pKd is 7.26 in experiment [1] (setting [17]); no more than 4.28 in [2] (setting [17]); no more than 4.15 in [3] (setting [17]); 4.93 in experiment [4] (setting [17]); 6.65 in [5] (setting [17]); 6.41 in [6] (setting [17]).

Take SLFSLLLVI: the pKd in [7] (setting [18]) was 7.56.

For TKHPSLNII, the pKd in [1] (setting [19]) was no more than 4.33; in experiment [2] (setting [19]), no more than 4.27; in experiment [3] (setting [19]) it was no more than 4.28; in [4] (setting [19]) it was no more than 4.11; in experiment [5] (setting [19]) it was no more than 4.10; in [6] (setting [19]) it was no more than 4.11.

Turning to KLRGVAPL, the pKd in experiment [8] (source organism: Influenza A virus (A/Swine/Indiana/1726/1988(H1N1))) was 5.65.

Regarding QYSDRRWCFD, the pKd in experiment [7] (setting [20]) is no more than 4.27.

As for KTMAPVHTY, the pKd in experiment [7] (setting [18]) was 8.34.

As to KTTWLPVLL, the pKd in [7] (setting [20]) is 6.83.

SGKDTPGGY: the pKd in experiment [1] (setting [21]) was 4.87; in experiment [2] (setting [21]) it was no more than 4.11; in experiment [3] (setting [21]) it was no more than 4.11; in [4] (setting [21]), no more than 4.11; in experiment [5] (setting [21]), no more than 4.16; in experiment [6] (setting [21]), 8.55.

For KMFSNNVLI, the pKd in [7] (setting [18]) was 8.96.

The sequence KVHADDIPV showed a pKd in [8] (source organism: Escherichia coli) of 7.82.

Consider HIYFVSLLL, for which, in experiment [7] (setting [18]), the pKd is 7.82.

Regarding KFRDMITFR, the pKd in experiment [9] (source organism: Vibrio cholerae) was no more than 4.70.

Consider GTGPEASLPY, for which the pKd in experiment [1] (setting [17]) is 6.46; in experiment [2] (setting [17]), no more than 4.15; in experiment [3] (setting [17]), no more than 4.15; in experiment [4] (setting [17]), 6.39; in experiment [5] (setting [17]), 6.93; in experiment [6] (setting [17]), 6.04.

For the sequence GEIGAIALD, in experiment [10] (setting [22]), the pKd is 6.04.

Consider MTVASRQPI, for which the pKd in experiment [7] (setting [18]) is 5.54.

For the sequence AARISSCLK, in experiment [9] (source organism: Yersinia pestis), the pKd is no more than 4.70.

With KWDLLKYDF, the negative-log Kd (pKd) is no more than 4.11 in experiment [1] (setting [17]); 4.90 in [2] (setting [17]); no more than 4.55 in experiment [3] (setting [17]); no more than 4.11 in experiment [4] (setting [17]); 8.31 in experiment [5] (setting [17]); 7.05 in experiment [6] (setting [17]).

For the sequence VQGPGGSTY, the values for the pKd in experiment [11], in [12] and in experiment [13] were 4.84, 5.05 and 6.72, respectively.

IHAKHEWMTT: the pKd in experiment [7] (setting [23]) is 5.28.

Turning to TEATQLATL, in experiment [14] (setting [22]), the pKd was 8.08.

Take SEFQIYKKSG: the figures for the pKd in experiment [14] (setting [23]) and in experiment [10] (setting [23]) were 6.39 and 5.43, respectively.

On to FEKQLGQVML, for which the pKd in experiment [14] (setting [23]) is 6.89.

Regarding QYSQPQQPI, the pKd in experiment [1] (setting [24]) was no more than 4.25; in [2] (setting [24]) it was 4.79; in [3] (setting [24]), 5.58; in experiment [4] (setting [24]), no more than 4.11; in [5] (setting [24]) it was 6.39; in [6] (setting [24]), 7.03.

In the case of VSVKMFDAY, the pKd in [1] (setting [17]) was 6.99; in experiment [2] (setting [17]), 4.98; in experiment [3] (setting [17]) it was 4.99; in experiment [4] (setting [17]) it was 4.94; in experiment [5] (setting [17]), 7.12; in experiment [6] (setting [17]) it was 6.19.

With CTPPALNCY, the negative logarithm of the Kd (pKd) is no more than 4.16 in experiment [1] (setting [17]); no more than 4.49 in [2] (setting [17]); no more than 4.11 in experiment [3] (setting [17]); no more than 4.36 in [4] (setting [17]); 5.89 in [5] (setting [17]); 5.32 in [6] (setting [17]).

Take VVAIDYRHY: the negative logarithm of the Kd (pKd) in experiment [1] (setting [17]) is no more than 4.28; in experiment [2] (setting [17]), no more than 4.11; in experiment [3] (setting [17]), no more than 4.11; in [4] (setting [17]), no more than 4.66; in [5] (setting [17]) it was 7.19; in experiment [6] (setting [17]), 7.93.

VAEGQTLDL showed a pKd in experiment [15] of no more than 4.06.
